# Source: the supplement of paper PMC10126150
# ± gives the standard deviation of the averaged measurements.
# Tested on: ATP
# Experiment: switch fluorescence ratio, 500 uM ATP over buffer (Cy3 cluster intensity, sum of 5 cycles each) (fold (ratio)); higher = stronger signal-on switching upon ATP binding; sequences stand for … in TCGTCGGCAGCGTCAGATGTGTATAAGAGACAGTTTTTTTTTTTTTTTTTTTTTTTTT…TC
# Conditions: aptamer strand: ATP DNA aptamer (quencher-CACCTGGGGGAGTATTGCGGAGGAAGG + anchor), 100 nM annealed; ATP concentration: 500 uM
# Outline: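 Five buffer/ATP imaging cycles were run on Cy3-labelled switching-strand clusters on a modified Illumina MiSeq flow-cell, with NaOH stripping and re-annealing between cycles. In each cycle, clusters annealed to 100 nM quencher-labelled ATP aptamer were imaged in selection buffer, then after 15 min with 500 uM ATP at 22 °C. Per cluster, the fluorescence ratio is summed target-cycle over summed buffer-cycle Cy3 intensity, averaged per switch-domain sequence. Only clusters within 100-1000 RFU were kept.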
# 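Note: ATP exposure 15 min at 22 °C before imaging.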
row,Sequence,switch fluorescence ratio
1,TCTAATGTGG,0.983 ± 0.043
2,TCGAGGGAGT,1.02 ± 0.028
3,TTTCTCGTTC,1.15 ± 0.21
4,CTGTAAGGAA,0.989 ± 0.026
5,TTTCTCTGGT,0.993 ± 0.045
6,ACCCAAGATT,1.01 ± 0.017
7,AATGTTGGGA,0.995 ± 0.015
8,TGTTGGAGAA,0.988 ± 0.011
9,CTAAGAGGGC,1.0235 ± 0.00018
10,GTGGTTTGTT,1.01 ± 0.046
11,TGGGAGCGGT,0.995 ± 0.007
12,TATGGGTCGG,1 ± 0.043
13,AAGAGGGGTT,1.03 ± 0.062
14,CTGTAGTCTG,1.11 ± 0.019
15,GCTTTTGTGG,0.986 ± 0.035
16,GGGTTTGTAC,1.13 ± 0.12
17,CGTGTACGGA,1.022 ± 0.0021
18,GACTGATTGG,1.02 ± 0.012
19,GCTGCGGGGA,0.9929 ± 0.0071
20,TGATGGCGGT,1.04 ± 0.065
21,TTTTGAAGGT,0.997 ± 0.0099
22,CCAGGGGTGG,1.02 ± 0.064
23,GGGAGTTGG,0.992 ± 0.017
24,AGCAAAGTA,0.9748 ± 0.0062
25,AAGCATAGGG,1.02 ± 0.015

row,Sequence,switch fluorescence ratio
1,AGCCGTTTCG,0.999 ± 0.017
2,TGTTTCTATT,0.9925 ± 0.0055
3,TCATCCCGGG,1.052 ± 0.0077
4,GGCGGATGGG,1.02 ± 0.026
5,AATGGTGAGG,1.05 ± 0.051
6,GCACTGTGGG,1 ± 0.016
7,TCAACTATAG,0.999 ± 0.01
8,CCAGTTTTTT,1.002 ± 0.0099
9,TTTTGAGGG,1.07 ± 0.061
10,GGCTGTCGGA,0.997 ± 0.0034
11,CTGGAAATGG,1.033 ± 0.0095
12,GGAATTTTGC,1.03 ± 0.031
13,AGGTGTTGT,1.03 ± 0.053
14,AGCTAGAGTC,1.03 ± 0.028
15,GATTTTGGCC,0.959 ± 0.037
16,ATTCCTGTT,1.004 ± 0.0019
17,TTCAATATGT,0.991 ± 0.049
18,GTTTTTATGG,0.997 ± 0.03
19,TTATGGTTTT,1 ± 0.024
20,TTTACGATGC,1.05 ± 0.0062
21,TTGGAAATTT,1.05 ± 0.17
22,AAATTTCTTT,0.996 ± 0.016
23,TTATTTTTGT,1.01 ± 0.026
24,GAAGGCAGCG,1.03 ± 0.017
25,GAAATAGGTT,0.989 ± 0.012

row,Sequence,switch fluorescence ratio
1,TAAGTTAGTA,0.9786 ± 0.0091
2,GTGTGGTTTT,1.03 ± 0.015
3,GTAAAAATTT,1.06 ± 0.11
4,CTTAGTCTTT,1.018 ± 0.0027
5,CACCTGATGG,0.997 ± 0.025
6,TACTTACTAG,1.099 ± 0.01
7,TTTTGGGCGT,1 ± 0.062
8,CGTTCCGGGG,1.03 ± 0.036
9,GGGGAAGGGT,1.08 ± 0.23
10,CGAAAATGTA,0.9772 ± 0.0089
11,TTAATAGAGT,1 ± 0.018
12,TAGCGAGCGC,0.988 ± 0.068
13,AAGTGGGTAT,1.16 ± 0.23
14,TAAAAACCAT,1.01 ± 0.046
15,GTGTGGGGCG,0.962 ± 0.058
16,ATAATTCGTG,1.01 ± 0.027
17,AGTTTTCATG,1.02 ± 0.017
18,AATTCCTCAG,1.43 ± 0.1
19,CAAGGGAATG,1 ± 0.022
20,GGCTTTTTTG,0.9954 ± 0.0081
21,AGGTATACCT,1.014 ± 0.0028
22,TTTGGGGGAC,0.984 ± 0.05
23,ACGGTGACGT,1.01 ± 0.028
24,ATGGATGACT,1.04 ± 0.018
25,TTAGAGGTTT,0.971 ± 0.038

row,Sequence,switch fluorescence ratio
1,TCAAGACCTT,1.19 ± 0.014
2,TCAATGAAGC,0.988 ± 0.012
3,TGATGCTTCA,1 ± 0.037
4,CGAGGCTAGG,1.07 ± 0.021
5,CGTGGTATGG,0.9976 ± 0.003
6,GTATTATTTA,1 ± 0.022
7,TATGTTACCA,0.977 ± 0.046
8,GCCTGGTTGG,0.995 ± 0.015
9,TCTGGAATAA,1.66 ± 0.057
10,TCAAGAATGG,1 ± 0.059
11,GCTAGGGGTG,1.07 ± 0.055
12,GAGGGGTTG,0.988 ± 0.034
13,AATGACTATG,0.976 ± 0.056
14,TTATACGTAT,1.04 ± 0.037
15,CCTGGATGTA,1.02 ± 0.025
16,ATTAGAGGTG,1.08 ± 0.03
17,GTGTTTAAGA,1.01 ± 0.026
18,TAGTATTTAT,1.02 ± 0.044
19,AGAATAGAGT,0.97 ± 0.038
20,GGGGGGACAC,1.031 ± 0.0019
21,CTCATGGGGA,1.04 ± 0.075
22,TTGGATTAGT,0.982 ± 0.011
23,TATTTAGGGT,1.01 ± 0.021
24,CTTATAGTTT,1.01 ± 0.016
25,CATTTCAACC,1.019 ± 0.0021

row,Sequence,switch fluorescence ratio
1,GGGCTAGCCA,0.979 ± 0.011
2,CAAATAGGGG,0.971 ± 0.024
3,AGTTAGGGGT,0.987 ± 0.02
4,AAGGCTGTAC,1.71 ± 0.1
5,GATATGAGGG,1.029 ± 0.0037
6,AAGATAGCGG,0.9978 ± 6.2e-05
7,TACGGGCGGG,1.24 ± 0.17
8,TGGGGTATAC,1.02 ± 0.038
9,ATTGGAGTAG,1.01 ± 0.014
10,GTTTTTAGGT,0.98 ± 0.021
11,TTGTGGTTGC,1.02 ± 0.013
12,CCAGTGAGTC,1.07 ± 0.041
13,TGGGTATTAT,0.9997 ± 0.0052
14,CTATGTAGTC,1.01 ± 0.019
15,GAGCTTTTGG,1.03 ± 0.068
16,AAGGTAAGAG,0.999 ± 0.037
17,CATTGTGGGA,0.997 ± 0.023
18,TATGGCGGAG,0.9975 ± 0.0061
19,TTTGGGGATG,1 ± 0.033
20,TCGATGCTGG,0.982 ± 0.084
21,ATAAGGAGTG,0.996 ± 0.021
22,TTTCGTTTTT,0.991 ± 0.038
23,AAGATGCTTG,0.998 ± 0.038
24,GAAAGGGTCC,1.001 ± 0.01
25,GGGGGGCCTA,0.988 ± 0.046

row,Sequence,switch fluorescence ratio
1,CTGGTTTCGA,1.017 ± 0.0082
2,AGGCAGGCGG,1.01 ± 0.073
3,TGGGCCGCTT,1.04 ± 0.028
4,CAATTGCATC,1.02 ± 0.014
5,CGATCGATAT,0.998 ± 0.032
6,ACGTAACATA,1.22 ± 0.017
7,TTTGAGTCAG,0.994 ± 0.035
8,AGGGAAAGGA,0.9889 ± 0.0085
9,ATTGCGTTGG,0.996 ± 0.013
10,TTTGGTACAC,1.01 ± 0.021
11,AGGGGGAAAC,1.01 ± 0.027
12,ACGGGGGGGA,1.03 ± 0.032
13,GAAGTTCCCA,0.979 ± 0.011
14,GGGCAGGGGA,1.17 ± 0.35
15,GATTGGAGCA,1.02 ± 0.034
16,GACTCGGTGC,1.05 ± 0.019
17,TTTTAAAATG,1.01 ± 0.032
18,GAGGGGTGTC,0.978 ± 0.03
19,CGTACTTGGG,0.982 ± 0.011
20,GCAATTCAGA,1.064 ± 0.0099
21,TTGTGAGGGC,1.02 ± 0.041
22,TTCGGGATTG,0.997 ± 0.024
23,TATTGCTTT,0.977 ± 0.012
24,GATTGTGAT,1.01 ± 0.04
25,TTTTAAATTG,0.964 ± 0.023

row,Sequence,switch fluorescence ratio
1,TGGAAAAATT,1.03 ± 0.04
2,TTGAGAGCAG,1.24 ± 0.11
3,CCTGAGTCGT,1.09 ± 0.017
4,TAACAGGGAG,1.012 ± 0.01
5,CATTTGATCG,1.03 ± 0.013
6,CTATGGGCCG,0.972 ± 0.028
7,ATAGGAGGGT,0.989 ± 0.014
8,TGATGGAGAG,0.97 ± 0.034
9,GTAGAAGGGG,1 ± 0.021
10,TAATTCACCA,1.18 ± 0.18
11,TTAGGTTTAT,0.986 ± 0.013
12,AATGTGTTGG,0.984 ± 0.025
13,ATTGGGAGGG,1.022 ± 0.0026
14,GCAAGGTAAA,1.01 ± 0.037
15,CGGTAAAAAG,1.01 ± 0.017
16,GACCTTTTTC,1.03 ± 0.068
17,TAAGGAGGGG,0.981 ± 0.024
18,TTTTCCGGGT,1.02 ± 0.032
19,AATTAAAAAT,0.987 ± 0.017
20,TAGTTGAACA,1.01 ± 0.021
21,TCGATTCGAT,1.35 ± 0.57
22,AGGTTTATCA,0.991 ± 0.028
23,CTGGTTTTGC,0.998 ± 0.022
24,TGAGTGTGGG,0.99 ± 0.03
25,GGGTTGACCT,1.07 ± 0.067

row,Sequence,switch fluorescence ratio
1,ACCCAGAAGG,1.08 ± 0.043
2,TTGTGGGTCG,0.984 ± 0.031
3,AGGGAGTCTC,0.98 ± 0.031
4,TGCCATGACG,0.936 ± 0.046
5,TAAAGGTACA,1.03 ± 0.018
6,CGGGGGACGC,0.993 ± 0.06
7,TTTCTCGTCG,1 ± 0.014
8,GAGTTTGTTT,0.99 ± 0.044
9,TTTGTTGTGT,1.02 ± 0.025
10,TGTTAAAAAC,1.082 ± 0.0085
11,TGTTACCAGC,1.01 ± 0.014
12,CTAGGTGTGT,1.02 ± 0.051
13,GGTTATGAGT,0.99 ± 0.017
14,GGTTTTTAGA,1 ± 0.013
15,TTGGTTATGT,0.969 ± 0.017
16,TTACGCTCAT,2.79 ± 0.61
17,TTAATTAGTT,1.01 ± 0.023
18,GCGGAAGGGT,1 ± 0.04
19,TTCGGGAGCC,1 ± 0.024
20,TTGGTAATGT,1.03 ± 0.016
21,TTCGTACTAT,0.993 ± 0.039
22,TAAAAGTTAT,1.01 ± 0.02
23,CAAGTTAATG,0.97 ± 0.041
24,GGCGTAAAGT,1.02 ± 0.036
25,TAAAGGTGTT,1.09 ± 0.095
